Experimental findings from patent publication US20240002540A1 are described below.

The target in assay [1] is FcγRI recombinant protein, His-tagged (UniProt P12314). Description: SPR (Biacore), His-tagged receptor captured by anti-His antibody on CM5 chip, antibody as analyte.
The target of assay [2] is human CD3 on T cells (Jurkat cells; human peripheral blood CD4+ and CD8+ T-cells) (human) (UniProt P07766). Description: flow cytometry on Jurkat cells.

FcγRI recombinant protein, His-tagged, sequence (P12314 16-288 limits assumed): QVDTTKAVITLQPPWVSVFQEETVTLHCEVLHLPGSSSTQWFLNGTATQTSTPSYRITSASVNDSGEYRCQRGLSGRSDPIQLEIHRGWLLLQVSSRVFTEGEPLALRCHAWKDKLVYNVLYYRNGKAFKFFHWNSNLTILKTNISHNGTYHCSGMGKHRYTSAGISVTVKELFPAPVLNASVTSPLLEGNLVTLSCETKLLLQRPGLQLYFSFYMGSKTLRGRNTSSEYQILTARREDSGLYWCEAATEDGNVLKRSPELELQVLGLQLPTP

Consider IgG4 isotype control (antibody), for which the Kd (in general, the equilibrium constant for the complex coming apart) in assay [1] amounted to 0.014 µM.
In assay [2], OKT3-hIgG1 (antibody) gave an affinity, FACS (Jurkat) of 0.27 nM.
